Target: T1, 191P4D12 (Homo sapiens, UniProt Q96NY8)
T1 sequence (Q96NY8 32-510): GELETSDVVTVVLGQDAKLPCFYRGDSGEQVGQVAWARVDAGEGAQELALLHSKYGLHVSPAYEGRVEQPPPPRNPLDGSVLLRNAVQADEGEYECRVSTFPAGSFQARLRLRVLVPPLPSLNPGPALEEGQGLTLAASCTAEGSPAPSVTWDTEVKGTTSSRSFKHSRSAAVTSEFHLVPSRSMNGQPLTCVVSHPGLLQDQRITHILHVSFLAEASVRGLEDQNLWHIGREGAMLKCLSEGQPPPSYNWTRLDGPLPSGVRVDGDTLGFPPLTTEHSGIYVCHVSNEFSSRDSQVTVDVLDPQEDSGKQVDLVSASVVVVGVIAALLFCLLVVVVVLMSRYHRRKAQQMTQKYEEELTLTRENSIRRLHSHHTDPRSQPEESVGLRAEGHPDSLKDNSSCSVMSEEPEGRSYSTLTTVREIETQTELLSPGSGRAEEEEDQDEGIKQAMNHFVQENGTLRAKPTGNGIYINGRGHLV
Test: Analytical and biological characterization studies: comparability of enfortumab vedotin and AGS-22M6E
From the text: As described above and in U.S. Pat. No. 8,637,642, AGS-22M6E is an ADC derived from a murine hybridoma cell line. Enfortumab vedotin is a Chinese hamster ovary (CHO) cell line-derived equivalent of AGS-22M6E ADC and is an exemplary product used for human treatment. Enfortumab vedotin has the same amino acid sequence, linker and cytotoxic drug as AGS-22M6E. The comparability between enfortumab vedotin and AGS-22M6E was confirmed through extensive analytical and biological characterization studies, such as binding affinity to 191P4D12, in vitro cytotoxicity, and in vivo antitumor activity.

enfortumab vedotin: Nectin-4 directed ADC: fully human anti-nectin-4 IgG1 kappa antibody (AGS-22C3) conjugated to MMAE via protease-cleavable maleimidocaproyl valine-citrulline linker
comparability between enfortumab vedotin and AGS-22M6E (binding affinity to 191P4D12, in vitro cytotoxicity, in vivo antitumor activity): confirmed

From US20230364254A1, “METHODS FOR TREATING CANCERS WITH ANTIBODY DRUG CONJUGATES (ADC) THAT BIND TO 191P4D12 PROTEINS” (priority 2020, published 2023)
